Measurements as given in the supplement of paper PMC10201428.
± gives the standard deviation of the averaged measurements.

B1: library; a variant is named by its letters at N, in order (parent)
chain: AATGTTGTTGATGCAACCATAAAGTGATATTTAATAATTATTTATAATCAGCAACTTAACCACAAAACAACCATATATTGATATNTCACAAAACAACCATAANTTGATATTTTTGTGAATCGAGTATTTCAGCAAAACTACTGCAGTAAGAA
B2: library; a variant is named by its letters at N, in order (parent)
chain: ACATTTGTTGATACAACCATAAAATGATAATTACACCCATAAATTGATAATTATCACACCCANNNNNNNNNNNNNNCTCTGATCATAGTCAGACCAACATTGCTACGACCCGTATTCGCACCGACAC

Columns and labels:
Conditions in all cases: with VchCAST RNA-guided transposition machinery (E. coli BL21(DE3) host, lacZ target)
[1] = variants of: B1; assay: relative integration efficiency (T-RL orientation) vs wild-type transposon end (log2 (normalized fold change)); transposon end mutated: left end; higher = more efficient transposition
How it was run: (§1)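 Barcode abundances in input plasmids and in genomic integration junctions were obtained by PCR amplification and Illumina sequencing. These came from E. coli BL21(DE3) co-transformed with a T7-driven effector plasmid and a pUC57 donor carrying 1549 left-end or 1849 right-end transposon variants, then plated with 0.1 mM IPTG at 37°C for 18 h. Relative integration efficiency is the output/input fold change, normalised to reference barcodes and log-transformed.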

[2] = variants of: B1; assay: relative integration efficiency (T-LR orientation) vs wild-type transposon end (log2 (normalized fold change)); transposon end mutated: left end; higher = more efficient transposition
How it was run: as §1

[3] = variants of: B2; assay: relative integration efficiency (T-RL orientation) vs wild-type transposon end (log2 (normalized fold change)); transposon end mutated: right end (5 bp flank + 75 bp right end); higher = more efficient transposition
Experimental: (§2)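 Pooled, barcoded VchCAST (Tn6677) mini-transposon donor libraries; each variable transposon-end sequence sits in a fixed pDonor mini-transposon context (10-bp barcode and cargo not included). Left- or right-end libraries were co-transformed with pEffector (TniQ-Cascade, TnsABC, lacZ crRNA, T7, 0.1 mM IPTG) into E. coli BL21(DE3) and grown 18 h at 37 C. T-LR and T-RL junction amplicons were sequenced; output/input barcode fold change was normalised to the mean of four wild-type barcodes and log2-transformed. Two biological replicates; zero-count/undetected variants carry floor values (-10 / -15), censored here. Barcode uncoupling by PCR recombination adds noise.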

[4] = variants of: B2; assay: relative integration efficiency (T-LR orientation) vs wild-type transposon end (log2 (normalized fold change)); transposon end mutated: right end (5 bp flank + 75 bp right end); higher = more efficient transposition
Experimental: as §2

| Variant | relative integration efficiency (log2) [1] | relative integration efficiency (log2) [2] | relative integration efficiency (log2) [3] | relative integration efficiency (log2) [4] |
| --- | --- | --- | --- | --- |
| CG T8G T9G G10T A11C | -7.43 ± 0.35 | – | – | – |
| CT A21C A22C A23C G24T A75C T76G A77C T78G A101C A102C T104G | -7.99 ± 1.6 | – | – | – |
| CG C49G A50T C52A A53T C55A T56C T57A A59T C61A A62C C63A A64G | -3.37 ± 1.4 | – | – | – |
| CT A102C | -0.973 ± 0.41 | -1.29 ± 0.9 | – | – |
| CT A101C A102C T104G | -1.96 ± 0.64 | -2.08 ± 1.2 | – | – |
| CT T100G A101C A102C | -2.43 ± 0.88 | -1.43 ± 0.25 | – | – |
| CT A23C G24T A77C T78G T104G | -0.527 ± 0.28 | -0.239 ± 0.088 | – | – |
| CG G10C A11T T12A G13C | -0.736 ± 0.86 | – | – | – |
| CG T6G G7T | -9.04 ± 0.91 | – | – | – |
| CG A19C T20G A21C A22C | -3.48 ± 1.4 | – | – | – |
| CG A19C A73C A99C | -6.27 ± 1.8 | – | – | – |
| CT | -0.0852 ± 0.034 | 0.219 ± 0.67 | – | – |
| CG T5A T6A G7C T8A | -7.12 ± 1.1 | – | – | – |
| CG T45C A46T A47T C49T A50G C52T A53T T56A A59T C60T | -6.51 ± 2 | – | – | – |
| CG G4C T5A T6A G7C | -7.62 ± 0.39 | – | – | – |
| CT T104G | -0.45 ± 0.14 | -0.14 ± 0.17 | – | – |
| CG A44G T45C A47T T48A C49A G51A C52A A53T A54T T56A A58C | -6.6 ± 1.8 | – | – | – |
| CG T6G | -7.013 ± 0.063 | – | – | – |
| CG T38C A40G T42A A44T A47T T48A C49T G51C C52A A53G A54T C55T T56G | -5.99 ± 0.93 | – | – | – |
| CT T104G T105G G106T | -1.06 ± 0.9 | -1.03 ± 0.46 | – | – |
| CG T125G | -0.0179 ± 0.099 | 0.265 ± 0.28 | – | – |
| CG T20G T74G T100G | -6.64 ± 1.3 | – | – | – |
| CT A22C A23C T76G A77C A102C | -3.81 ± 0.97 | -3.01 ± 0.15 | – | – |

| Variant | relative integration efficiency (log2) [1] | relative integration efficiency (log2) [2] | relative integration efficiency (log2) [3] | relative integration efficiency (log2) [4] |
| --- | --- | --- | --- | --- |
| CG T42A A44T C49A G51T C52T C55T A59T C60A C61T C63T A64T A65T | -2.87 ± 0.52 | – | – | – |
| CG A22C T76G A102C | -3.7 ± 1.5 | – | – | – |
| CG T82A | -0.103 ± 0.77 | – | – | – |
| CG T3A G4C T5A T6A | -6.84 ± 0.4 | – | – | – |
| CG C55A T56G T57G A58C | -2.14 ± 0.62 | – | – | – |
| CG T120G C121A G122T A123C G124T T125G | 0.166 ± 0.011 | 0.433 ± 0.18 | – | – |
| CG G7C T8A | -6.52 ± 0.12 | – | – | – |
| CT A23C A77C | -0.234 ± 0.065 | -0.217 ± 1.2 | – | – |
| CG T6A G7C T8A T9A | -6.58 ± 0.36 | – | – | – |
| CG T8G T9G | -6.84 ± 0.88 | – | – | – |
| CT A102C T104G T105G | -1.98 ± 0.87 | -1.62 ± 0.69 | – | – |
| CG T120G | -0.231 ± 0.1 | -0.103 ± 0.1 | – | – |
| CT A22C A23C G24T T76G A77C T78G A102C T104G | -3.88 ± 1.4 | -4.26 ± 1.6 | – | – |
| CT A22C A23C G24T T25G T76G A77C T78G T79G A102C T104G T105G | -8.29 ± 1.2 | < -10 | – | – |
| CG T48A C49T A50T C52T A53G C55G T56C T57G A58G C60T C61A A66T A67T | -4.31 ± 0.86 | – | – | – |
| CG T6A G7C | -6.27 ± 0.56 | – | – | – |
| CG T41A A44G A46G T48G A50G C52A A53T C55A T56C T57A A59T C60T | -4.27 ± 0.75 | – | – | – |
| CG G7T T8G T9G G10T | -7.84 ± 0.54 | – | – | – |
| TAAATTAATATTGC | – | – | -0.319 ± 0.15 | 1.63 ± 0.083 |
| TAAATTGATATTGC C37T | – | – | -0.229 ± 0.057 | -0.304 ± 0.57 |
| TAAATTGATATTGC C37A | – | – | -0.531 ± 0.059 | -1.21 ± 0.23 |
| TAAATTGATATTGC C37G | – | – | -0.123 ± 0.11 | -0.169 ± 0.072 |
| TAAATTGATATTGC A13T | – | – | 0.116 ± 0.008 | 0.0619 ± 0.48 |

| Variant | relative integration efficiency (log2) [1] | relative integration efficiency (log2) [2] | relative integration efficiency (log2) [3] | relative integration efficiency (log2) [4] |
| --- | --- | --- | --- | --- |
| TAAATTGATATTGC A13G | – | – | 0.209 ± 0.06 | 0.173 ± 0.33 |
| TAAATTGATATTGC A13C | – | – | -0.236 ± 0.083 | -0.613 ± 0.75 |
| TAAATTGATAGGTA | – | – | -0.219 ± 0.01 | 1.09 ± 0.099 |
| TAAATTGATATTGC A53C | – | – | -0.408 ± 0.19 | 0.07 ± 0.052 |
| TAAATTGATATTGC A53T | – | – | -0.33 ± 0.038 | -0.318 ± 0.48 |
| TAAATTGATATTGC A53G | – | – | -0.385 ± 0.25 | -0.269 ± 0.048 |
| TAAATTGATATTGC C14T | – | – | -0.00853 ± 0.13 | 0.0199 ± 0.32 |
| TAAATTGATATTGC C14A | – | – | -0.119 ± 0.027 | -0.254 ± 0.16 |
| TAAATTGATATTGC C14G | – | – | -0.477 ± 0.036 | -1.2 ± 0.21 |
| TAAATTGAATTTGC | – | – | -0.179 ± 0.17 | 1.16 ± 0.42 |
| TAAATTGATATTGC C18G | – | – | -0.199 ± 0.036 | -0.152 ± 0.14 |
| TAAATTGATATTGC C18T | – | – | 0.131 ± 0.1 | -0.605 ± 0.2 |
| TAAATTGATATTGC C18A | – | – | -0.147 ± 0.1 | -0.272 ± 0.024 |
| TAAATGTCGATTGC | – | – | -0.671 ± 0.07 | 2.165 ± 0.0045 |
| TAAATTGATATACG C77G | – | – | 0.221 ± 0.0027 | 0.3 ± 0.0057 |
| TAAATTGATATTGC A27C | – | – | -0.753 ± 0.18 | -0.281 ± 0.16 |
| TAAATTGATATTGC A27T | – | – | -0.915 ± 0.17 | -0.49 ± 0.05 |
| TAAATTGATATTGC A27G | – | – | -0.495 ± 0.11 | -0.445 ± 0.25 |
| CAAATTGATATTGC | – | – | -0.643 ± 0.087 | 1.861 ± 0.015 |
| TAAATTGATAAACG | – | – | -0.208 ± 0.021 | 0.342 ± 0.21 |
| TAAAAACTTATTGC | – | – | -0.368 ± 0.07 | 2.34 ± 0.09 |
| TAAATTGAGCTTGC | – | – | -0.264 ± 0.034 | 1.51 ± 0.32 |
| TAAATTGATACTGC | – | – | -0.0852 ± 0.044 | 0.177 ± 0.018 |
